Results published in a protein production outcome set (Wang et al. 2014).

Experiment: label from the status in PepcDB records
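Note: failed if final PepcDB status was selected cloned or expressed and not failed if soluble or beyond.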

Protein production, failed:
MMTGLYLGALAGIAVALAVLMAGAWVVQQLTGNSGWVDTIWTFSLGLTGAVSSLWPIDGAAPDARQWLVAVLVATWSLRLGSHIAARTRHITDDPRYAAYAAQWGTDAPKRMFFFLQNQAYGTIPLVFAIFVAAHAPAGSLRLQDYLGVLILIVAIAGEGLSDAQLKAFRENSANKGKVCDAGLWRWSRHPNYFFQWFGWLAYPVIAIPFAEPLSYLWGYAALLAPLFMYWILVYVTGIPPLEEQMLKSRGDRYRDYQARTSMFFPLPPRRSATL
MMTKAFFNKLPFEVFRRYVRTGKSIPQRSPRTRKSLLVGGTIASAVVLYNFNDTFHDSVKHTALTTKRIAVVTQATTRCFYHYKRALNKSYENKKEREVALNKCHKMCALITLHALRSNGGIYIKLGQHIGAMTYLLPKEWTDTMIPLQDHCPESTYEEIDELFKEDLGTSIEDMFLEFNKTPIGVASLAQVHVAKLKNSDGKGSSVAVKCQHPSLKEFIPLDVMLTRTVFELLDVFFPDYPLTWLGDELQSSIYVELNFTKEAENAEKTRHYFSKFKKQTALKIPKVIESHKRILIAEYVGGKRLDDLEYIDSHGISRSEVSSCLSHIFNNMIFTPNVGIHCDPHGGNLAIRSVKPAKDNGYHNFEIVLFDHGLYRYPSTRTRRLYAKFWLSLLFDKDQTKMKKYAKGFANITDEQFPLLAAAITGRSIDAALNYDISTSRTQEEMDVMANGILEGTLLSDLMSILSRIPRVVLLILKTNDLTRHLDECLQNPLGPERTFLIMTQYCAKTVYDEKVERINSEYARWSIKWMWENLTNWIVYERRINQLYFYDFVLWWKKFIPKTWLSS
MMTLIRITSADDSRLNRLIPLYEESFPESERRKIGQLKRMIENHAPMYFNAIECDGELSGMFVYWDMGDFYYLEHLAVFPEMRNKKIGQQVLDYVAEHLKGVRLLEVEPTEDEMTTRRVNYYRRNGYEVLDKTYVQPSYHA
MMVGLINAIPVANKDEYKNVGVYIEHRGDEIKRSSLEMIGIGKQLARKINEKLLCVVIGDKVDGIAKEVGEYGCDIVLAAESPDLAEYRTMPYAQIIGDYIAEYKPNIFLLAATRNGRDLASRIAVKERTGITADCTVLDVDENRTLLANRPTYGESTLAEILCRNHRPQMATARPGTFTPAEKEKDHKYEIVKKKVNVDKNMLKKQIIKFIPKKATDLTAAKIVVAGGLGLGGPDGFKLLQDLADLIGGAVGSSRPPVDLGWITRDHQVGQTGQAVRPDLYVAVGISGKPQHVAGMKFSKVIISINKDPNAEINKISDYIIVEDYRKAVPALIDAIKNFGKQKVAEAQKA
MMYSKFISFLKQIPLPICGLILGLISLGNLLYSKGYPILGNSYDMLGLFLMFLILLKIVLAMKHTISTLNDPIVASVSPTFTMSLMVLSVFLKRLSGFSLLANVTWWTALILHLILMMYFIYLHVLPKELKIHDVYPSWFITFVGIGVISATSPDFGLEVGKVVVWITLLFYFILLPIVMHRVFILRKMHKSLLPLITIITAPGSLGLVGYLTVVEAKSKIFVIFLFILSQAIYFITLGLLTKLLRSAFYPSYAAFTFPLVISATAVNLTSKLSVFQFLNLELLANMEILIAIAIVTYVLIRYCIFLGSKLVQIMSEKYSPESI
MMYVTVMPVFLAGVANRFFCKSDILAWTYQPIDGGFTMSDGKRILGANKTWKGFWGMITLTTFCQVIWGFILGIIPHLLTFSLVKSYHNDIFFNLFIGFLMGSAYVLCELPNSFIKRRFNVSPGQLASGNARWVFLFADQIVPFLGSIAVVAIFSPMTFSYYVGYVLLAAITLFAINSLILFVEMKRK
MNAARYAEHLAIFVEVARGGSFSAVARRHGATPSTITRKIDMLEEFVGTNLLVRSTRALLLTEAGETLFARGVSVLEALTDIHNEVIALSDSMYGTLRISCLPTFGKLHVLPWLADLQQRHPSMRIDLDLTERLTNPSVERLDAAIRIGKLKDSSLFAKQIGTQRWVICASPDYLRQRGHPSDLEDLRRLRLIDKLHDPHSMCWRRLVEKGHIDQIEAAFRCDDFEAMRQAALCGLGAAFLPDWVIAQDLAAGALIRLFDDPEGREDGIHLVRALPKMSAKLEVFHQALSNHLGQVRIGGCLPASR
MNAATLVDTHAVDTALQEAFEAAPEGFALFDAEDRCVIWNARYGELWSKWGVTLAVGATFESLLLAGLAAGRFPEANGDRAAWLAHQLGRRKLDRIEEIREEFGEYLRFESRRTPAGGLITTCANLTNLRRREAQALAARSFLDTIVENTPAMLFVKDGDTGAFLLVNRAAENQLGVPRAELLGKSDYDFFPKEQADAFAADDRRVIASGKLVTIDEEPLDTPHNGRRWLQTRKIAIPGEDGRRHLLVICEDITERKAGAAALAEALQKAEAGSVAKSEFLANMSHEIRTPLNGVIGMAEVLSRTALDDAQREMMEVILNSGRALNLLLSDILDLSKIEAGGLELSRDPLDLREAITAAVAVFKAVAESKGLVFRLTFADDFHDHVLGDALRVRQIVANLTSNAVKFTTAGSVIIEARTLVAEDGRIDLTVSVQDTGEGFDEDSADRLFERFQQADGSVTRKVGGTGLGLPIARRLARLMDGEISCVAHPGEGATFVFEALFLADGQRTPALEHHHHHH
MNAIGIVGTGAMGRGIAQIAAQAGLRVRLFDASPQAVEAARAALADTLARLAAKGRLTADQADAALARLMPAAALAELADCDLVVEAIVENLEAKRDLFRQLEAIVGPETILASNTSSLSITAIAAACRRPERVAGFHFFNPVPLMKVVEVIAGLRSAPAACDALAALAGRMGHAAVRCTDMPGFIVNHAGRGMNTEGLRVVQEGVTAFADVDAVMREQAGFRMGPFELMDLTGLDVSHPVMESIYRQFYDEPRYRPSRITAVRLAGGLLGRKTGEGFYRYADGQKPVPPEAAAPAARPKSVWVSRAHAAGHTAAQRLLLDLCVTPEDGAWPSAEALIVVTPRGLDATAAAVAEGLDGRRTVALDTLYPFAATRRRTLMTTPATDPAHRDAAHGLFAADGVPVTVIRDSGGFVAQRIVACIVNIACDIAQQRIATPADIDLAVTLGLGYPQGPLALGDTLGAGAVLEVLQNLTTLYGDPRYRPSPWLLRRARLGLSLLTPDA
MNAKIIASLAFTSMFSLSTLLSPAHAEEQEKALNFGIISTESQQNLKPQWTPFLQDMEKKLGVKVNAFFAPDYAGIIQGMRFNKVDIAWYGNLSAMEAVDRANGQVFAQTVAADGSPGYWSVLIVNKDSPINNLNDLLAKRKDLTFGNGDPNSTSGFLVPGYYVFAKNNISASDFKRTVNAGHETNALAVANKQVDVATNNTENLDKLKTSAPEKLKELKVIWKSPLIPGDPIVWRKNLSETTKDKIYDFFMNYGKTPEEKAVLERLGWAPFRASSDLQLVPIRQLALFKEMQGVKSNKGLNEQDKLAKTTEIQAQLDDLDRLNNALSAMSSVSKAVQ
MNAKSRPSRKLLKGAVIGPAQLMADQPFSVIRAVSRRSDRDHVGVLAAGVAFFSLLASFPALVTLITLYGLFTGPQEAVRQIAEAGVYLPRGVHDLLAEHLPRLAQASPGSLGLGAITSLLFSIWSASRGMGAMVDGVDIAYQVGDGRGFLRKSILVVGLTLAGLVVSAIALPLIVGLPALFDRLPLPLEIRWALALARWPLLFALVLGALAVLFRYAPDRENPRWRWVTPGALAAATLWILASGGLSLYVGLVSSYDQTYGTLAGVVVAMMWLYLASYAVLLGAEINAELEDRGMERIKKDQAAAKAAVARA
MNALALGAKSFPIFWHYWNPIWGYYLSRNVMRPISQFLPMWLAVLVTFLVSGALHDLAIALVKWQAMFFFTPWFGIMGVIVIASNKYGLSYGALPWIMRAMINLLFILSSFSLTELTQGLLRLSA
MNALKNLSLILLLSLAFTGCHNKSSKINDFNLLLYAPEYASGFDIKGAGGKESVLITVRNPWQGADSVTTWLFIVRNGEEVPEGFAGQVLKGDAKRIVAMSSTHIAMLDAIGEVRCITGVSGIDYISNPDIQARRDSIGDVGYEGNINYELLLSLDPDLVLLYGVNGASAMESKLEELDIPFMYVGDYLEESPLGKAEWMVVLSEVTGKREKGEKAFAAIPVRYNALKKKVADSTLGTPSVMLNVPYGDSWFMPSTQSYVARLITDAGGRYIYQKNTGNASIPIDLEEAYLLASDADMWLNVGMANSLDDLKASCPKFTDTRCFKNGEVYNNNARTNTAGGNDYYESAVVNPDIVLRDLVKIFHPELVQEECVYYKQLK
MNARLENLMQWLKEKNVEAAFLTSTPNVFYMTNIHCEPHERLLGMFVFQEKEPILICPKMEEGQARNAGWAHEIIGFTDTDRPWDMIAKAIKDRGINANAVAIEKEHLNVERYEELTKLFPNAAFTSAEEKVRELRLIKDEKELSILREAAKMADYAVEVGVNAIKEDRSELEVLAIIEHELKTEGIHKMSFDTMVLAGANSALPHGIPGANKMKRGDFVLFDLGVIIDGYCSDITRTVAFGDISEEQTRIYNTVLAGQLQAVEACKPGVTLGAIDNAARSVIADAGYGDFFPHRLGHGLGISVHEYPDVKAGNESPLKEGMVFTIEPGIYVPNVGGVRIEDDIYITKDGSEILTKFPKELQFVK
MNATHEALAIRARPRPASAPSAVLTLAWRAMLKIKHVPFQLFDVTVTPIMFTLLFTFIFGGALAGSPRQYVQYLVPGVLVQTVLFITVYTGVGLNSDIRKGLYDRFRSLPMWQPAPLLGALAGDVFRYSVAGGVILVVGFILGFRPQGGAPGVLAAMALVLVFSFALSWLWIVVGMLVRTPESVMTTSFVFLMPLTFASDIFVGLGTMPGWLQGVVRHNPVTHLANASRDLMHGRPAGADVSWTLLASLVIVAAVAPLAMRLYRKER
MNAYYLLAIAVCAEVIATTSMKAVKGLSTPLPLILLITGYAIAFWMLILVMRTIPVGITYAIWSGMGIVMVSVAAYFIYGQKLDLPALLGMGMIVAGVAVIQLFSKTAGH
MNCGRIRSLLQGGEATAGPVIYWMSRDQRVADNWALIHAQKLALARSAPLGVLFCLAPRFLGATARQYRFMLKGLEQVRAALNRLDIPFFLVTGDPKGAVAAFTRRHRVSYLVTDFDPLRVKREWKRQVAGEISIPFDEVDAHNIVPCWITSQRQEWGAYTIRPKIHRLLPDFMEPFPPLQRHPFPWQGALPSDAEWRETFTGMTLDESVPEVSWLASGEEAAQAALARFLEDGLAGYATRRNNPAVMGQSGLSPWLHFGQLSAQRVAQAAFAAAAPIESRDAFLEELIVRRELADNFCYYNDAYDRFDGFPEWAQRTLNRHRHDPRPQCYEHDVLEQGQTHDSLWNAAQLEMVRWGRMHGYLRMYWAKKLLEWTSSPEDALMIAIQLNDRYQLDGRDPNGYAGIAWSIGGVHDRPWAERPVFGTIRFMSRDGCRRKFDTDAYERRVIISPATCAGIALCK

Protein production, not failed:
MMTAPGIYYDGRTSARRTVRLTLEGNRLLVAGEGVETSAELSRLAISSPLSTARRSVRFPSGALCEVSDTRFVDELMRRQGKGRASAAIHRWERSLPLALVALVATVAVVWGFVAFGIPALADKVARAVPPVTEVSLGRESLAMLDKLVFTPSRLPDARRRDIAAQFSRMGRDLPFAAGYRLEFRRSDQLGANALALPSGIIVVTDRLVEIAQSDDELIGVLAHEMGHVRHRHALRHVLQNSATGLIIAAITGDITSITSLAATLPTVLVDASYSRSFETEADDAAVAYLKRRGIPLKSYAAMLGRLEAEHRKKQEEKGKKEKKSLGDYFSTHPVTEERIKRVLEAGRLEHHHHHH
MNAAQVQALIRMGLPMAEDIDFRVERLDERHALARIPFHGKLVRPGGTLSGPTIMALADAAMYAVILGRLGAVEMAVTSNLNINFLSKPRPEDLLAEASILKLGRRQVVCEVGVFSQSNEEDLVAHVTGTYALPLLEHHHHHH
